Consider 4 variants from IntAct's records for PubMed 22981988.

First the molecules themselves.
B1: Arfaptin-1 (Homo sapiens), P53367 (parent)
chain: MAQESPKNSAAEIPVTSNGEVDDSREHSFNRDLKHSLPSGLGLSETQITSHGFDNTKEGVIEAGAFQGSPAPPLPSVMSPSRVAASRLAQQGSDLIVPAGGQRTQTKSGPVILADEIKNPAMEKLELVRKWSLNTYKCTRQIISEKLGRGSRTVDLELEAQIDILRDNKKKYENILKLAQTLSTQLFQMVHTQRQLGDAFADLSLKSLELHEEFGYNADTQKLLAKNGETLLGAINFFIASVNTLVNKTIEDTLMTVKQYESARIEYDAYRTDLEELNLGPRDANTLPKIEQSQHLFQAHKEKYDKMRNDVSVKLKFLEENKVKVLHNQLVLFHNAIAAYFAGNQKQLEQTLKQFHIKLKTPGVDAPSWLEEQ
B2: Arfaptin-1 (Homo sapiens), P53367 (parent)
chain: B1 chain
partner: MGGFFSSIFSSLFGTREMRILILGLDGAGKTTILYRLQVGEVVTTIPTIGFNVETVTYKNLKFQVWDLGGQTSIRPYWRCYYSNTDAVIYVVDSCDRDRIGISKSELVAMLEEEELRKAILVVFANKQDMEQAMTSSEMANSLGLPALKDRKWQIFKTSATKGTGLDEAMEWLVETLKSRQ

One experiment covers variants of B1. The note with it: with arf1_human ARF1, P84077.
Chain of arf1_human ARF1, P84077 (P84077 whole entry): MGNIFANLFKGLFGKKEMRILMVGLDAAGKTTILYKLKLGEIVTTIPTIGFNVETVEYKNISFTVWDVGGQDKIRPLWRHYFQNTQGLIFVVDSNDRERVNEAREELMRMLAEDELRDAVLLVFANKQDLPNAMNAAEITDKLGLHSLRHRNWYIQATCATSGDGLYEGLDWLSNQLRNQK
Regarding S132A, the “effect of a mutation on the interaction” value is listed as “with no effect”.

Variants of B1 are the subject of a further experiment. The note with it: with arf3_human ARF3, P61204.
Chain of arf3_human ARF3, P61204 (P61204 whole entry): as the sequence (P84077 whole entry) above, with A6G, F9L, G11S, F13I, S174A, R178K, Q180K counted along it
Regarding S132A, the “effect of a mutation on the interaction” value was “with no effect”.

Regarding S132D, the “effect of a mutation on the interaction” value was “disrupting interaction strength”.

The variants in the next experiment derive from B1. The note with it: with arf1_human ARF1, P84077. The source holds these as a separate data set.
With S132D, the “effect of a mutation on the interaction” value is “disrupting interaction strength”.

In another experiment the parent is B2. The note with it: with arl1_human ARL1, P40616.
As to S132D, the “effect of a mutation on the interaction” value was “disrupting interaction strength”.

As for S132A, the “effect of a mutation on the interaction” value is given as “with no effect”.
